Changes are numbered by the printed parent chain. Numbers in names are those of the source.
B1: acidic domain of Homo sapiens APLF (APLF^AD, residues 450 to 511), wild type (domain or fragment)
chain: DEDNDNVGQPNEYDLNDSFLDDEEEDYEPTDEDSDWEPGKEDEEKEDVEELLKEAKRFMKRK
B2: APLF^AD double anchor mutant Y462A/F468A (DA-34) (domain or fragment)
chain: B1 chain with Y13A, F19A
B3: APLF^AD double anchor mutant Y476A/W485A (DA-AB) (domain or fragment)
chain: B1 chain with Y27A, W36A
B4: APLF^AD F468A (protein)
chain: B1 chain with F19A
B5: APLF^AD mutant of Y462 tested by ITC on H3-H4 (domain or fragment)
chain: B1 chain with Y13A
B6: SUMO-APLF^AD quadruple anchor mutant Y462A/F468A/Y476A/W485A (QA) (domain or fragment)
chain: B1 chain with Y13A, F19A, Y27A, W36A

Each binder was assayed against T1, Drosophila melanogaster histone H3-H4 complex, full-length (Drosophila melanogaster, UniProt P02299 1-136; P84040 1-103) (assay: ITC).

| Kd | Binder |
| --- | --- |
| 552 nM | B1 |

Target: T1, Drosophila melanogaster histone H3-H4 …
Assay: ITC
Remark: another data set of the same source

| Kd | Binder |
| --- | --- |
| 7630 nM | B2 |
| 2050 nM | B3 |
| 790 nM | B1 |
| 980 nM | B4 |
| 3090 nM | B5 |

Each binder was assayed against stoichiometric mixture of full-length Drosophila melanogaster H2A-H2B and H3-H4 (octamer-mix) (Drosophila melanogaster, UniProt P84051 1-124; P02283 1-123; P02299 1-136; P84040 1-103) (assay: ITC).

| Kd | Binder |
| --- | --- |
| 90 nM | GLDEDNDNVGQPNEYDLNDSFLDDEEEDYEPTDEDSDWEPGKE (domain or fragment) [truncated APLF^AD construct corresponding to residues 449 to 490 (APLF^AD-Δ)] |
| 671 nM | B2 |
| 317 nM | B3 |
| 794 nM | B6 |
| 1220 nM | LDEDNDNVGQPNEADLNDSALDDEEEDAEPTDEDSDAEPGKE (domain or fragment) [SUMO-APLF^AD truncated QA mutant (QA-Δ, residues 449 to 490)] |

From paper PMC9328677 (2021)
